According to the PETadex activity labels (doi:10.1186/s13568-014-0044-9):

Columns and labels:
[1] = substrate: p-NP-C4; details: pH 8.5; 25 °C
[2] = substrate: pNPB; assay: Proxy for plastic degradation [Km]; details: pH 8.5
[3] = substrate: pNPB; assay: Proxy for plastic degradation [kcat] (s⁻¹); details: pH 8.5
[4] = substrate: pNPB; assay: Proxy for plastic degradation [Residual activity]; details: pH 8.5
[5] = substrate: pNPB; assay: Proxy for plastic degradation [Relative activity]

B1: unnamed (protein)
chain: MSLRKSFGLLSATAALVAGLVAAPPAQAAANPYQRGPDPTESLLRAARGPFAVSEQSVSRLSVSGFGGGRIYYPTTTSQGTFGAIAISPGFTASWSSLAWLGPRLASHGFVVIGIETNTRLDQPDSRGRQLLAALDYLTQRSSVRNRVDASRLAVAGHSMGGGGTLEAAKSRTSLKAAIPIAPWNLDKTWPEVRTPTLIIGGELDSIAPVATHSIPFYNSLTNAREKAYLELNNASHFFPQFSNDTMAKFMISWMKRFIDDDTRYDQFLCPPPRAIGDISDYRDTCPHT
Km [1]: 88.8 µM | kcat [1]: 2.3 s⁻¹ | kcat/Km [1]: 25900 M⁻¹ s⁻¹ | Proxy for plastic degradation [2]: 88.8 µM | Proxy for plastic degradation [3]: 2.3 | Proxy for plastic degradation ([3]; 25 °C): 2.3 | Proxy for plastic degradation ([4]; 50 °C, 0 h): 100% | Proxy for plastic degradation ([4]; 50 °C, 10 h): 100% | Proxy for plastic degradation ([4]; 50 °C, 20 h): 105% | Proxy for plastic degradation ([4]; 50 °C, 30 h): 110% | Proxy for plastic degradation ([4]; 50 °C, 45 h): 115% | Proxy for plastic degradation ([4]; 50 °C, 60 h): 114% | Proxy for plastic degradation ([4]; 55 °C, 0 h): 100% | Proxy for plastic degradation ([4]; 55 °C, 10 h): 103% | Proxy for plastic degradation ([4]; 55 °C, 20 h): 95% | Proxy for plastic degradation ([4]; 55 °C, 30 h): 90% | Proxy for plastic degradation ([4]; 55 °C, 45 h): 89% | Proxy for plastic degradation ([4]; 55 °C, 60 h): 80% | Proxy for plastic degradation ([4]; 60 °C, 0 h): 100% | Proxy for plastic degradation ([4]; 60 °C, 10 h): 35% | Proxy for plastic degradation ([4]; 60 °C, 20 h): 32% | Proxy for plastic degradation ([4]; 60 °C, 30 h): 30% | Proxy for plastic degradation ([4]; 60 °C, 45 h): 25% | Proxy for plastic degradation ([4]; 60 °C, 60 h): 25% | Proxy for plastic degradation ([5]; 30 °C): 35% | Proxy for plastic degradation ([5]; 40 °C): 50% | Proxy for plastic degradation ([5]; 50 °C): 70% | Proxy for plastic degradation ([5]; 55 °C): 85% | Proxy for plastic degradation ([5]; 60 °C): 100% | Proxy for plastic degradation ([5]; 65 °C): 70% | Proxy for plastic degradation ([5]; 70 °C): 35% | Proxy for plastic degradation ([5]; pH 6.5): 10% | Proxy for plastic degradation ([5]; pH 7): 22% | Proxy for plastic degradation ([5]; pH 7.5): 50% | Proxy for plastic degradation ([5]; pH 8): 85% | Proxy for plastic degradation ([5]; pH 8.5): 100% | Proxy for plastic degradation ([5]; pH 9): 95% | Proxy for plastic degradation ([5]; pH 9.5): 75%

B2: unnamed (protein)
chain: MKRTLKRALSLLPAAALAASALVAASPAQAAANPYQRGPNPTEASITAARGPFNTAEITVSRLSVSGFGGGKIYYPTTTSEGTFGAIAISPGFTAYWSSLEWLGHRLASQGFVVIGIETNTTLDQPDQRGQQLLAALDYLTQRSAVRDRVDASRLAVAGHSMGGGGSLEAAKARTSLKAAIPLAPWNLDKTWPEVRTPTLIIGGELDAVAPVATHSIPFYNSLSNAPEKAYLELDNASHFFPNITNTQMAKYMIAWMKRFIDDDTRYTQFLCPPPSTGLLSDFSDARFTCPM
Km [1]: 83 µM | kcat [1]: 12.4 s⁻¹ | kcat/Km [1]: 149000 M⁻¹ s⁻¹ | Proxy for plastic degradation [2]: 83.1 µM | Proxy for plastic degradation [3]: 12.4 | Proxy for plastic degradation ([3]; 25 °C): 12.4 | Proxy for plastic degradation ([4]; 50 °C, 0 h): 100% | Proxy for plastic degradation ([4]; 50 °C, 10 h): 85% | Proxy for plastic degradation ([4]; 50 °C, 20 h): 75% | Proxy for plastic degradation ([4]; 50 °C, 30 h): 70% | Proxy for plastic degradation ([4]; 50 °C, 45 h): 45% | Proxy for plastic degradation ([4]; 50 °C, 60 h): 40% | Proxy for plastic degradation ([4]; 55 °C, 0 h): 100% | Proxy for plastic degradation ([4]; 55 °C, 10 h): 15% | Proxy for plastic degradation ([4]; 55 °C, 20 h): 15% | Proxy for plastic degradation ([4]; 55 °C, 30 h): 15% | Proxy for plastic degradation ([4]; 55 °C, 45 h): 14% | Proxy for plastic degradation ([4]; 55 °C, 60 h): 15% | Proxy for plastic degradation ([4]; 60 °C, 0 h): 100% | Proxy for plastic degradation ([4]; 60 °C, 10 h): 15% | Proxy for plastic degradation ([4]; 60 °C, 20 h): 15% | Proxy for plastic degradation ([4]; 60 °C, 30 h): 15% | Proxy for plastic degradation ([4]; 60 °C, 45 h): 15% | Proxy for plastic degradation ([4]; 60 °C, 60 h): 14% | Proxy for plastic degradation ([5]; 30 °C): 25% | Proxy for plastic degradation ([5]; 40 °C): 40% | Proxy for plastic degradation ([5]; 50 °C): 75% | Proxy for plastic degradation ([5]; 55 °C): 100% | Proxy for plastic degradation ([5]; 60 °C): 80% | Proxy for plastic degradation ([5]; 65 °C): 50% | Proxy for plastic degradation ([5]; 70 °C): 10% | Proxy for plastic degradation ([5]; pH 6.5): 10% | Proxy for plastic degradation ([5]; pH 7): 22% | Proxy for plastic degradation ([5]; pH 7.5): 55% | Proxy for plastic degradation ([5]; pH 8): 95% | Proxy for plastic degradation ([5]; pH 8.5): 100% | Proxy for plastic degradation ([5]; pH 9): 90% | Proxy for plastic degradation ([5]; pH 9.5): 65%
